From patent US20130122545A1

T1: Glt-AAF-MCA
T1 chain: AAF

T2: Z-LLE-MCA
T2 chain: LLE

T3: Boc-FSR-MCA
T3 chain: FSR

T4: Suc-LLVY-MCA
T4 chain: LLVY

T5: Suc(OMe)-AAPV-MCA
T5 chain: AAPV

B1: Aspergillus niger 19 kDa protease (protein)
chain: SPIPSYSRPGRGQHFQDAYGFAEACIAGDRMEIAGQTGMSPTSTEVPPTLEEEVAQAFNNINEVILYTLEKAKPDLRASVKSGWDRVVKIRTYHVQLPQTREKIIGLMVENVKKWCPDHQPTWTMLGIEALPFEGQNLEIEVDVFLG

Columns and labels:
[1] = molecular target: Aspergillus niger 19 kDa protease (Aspergillus niger); assay: cell-based or functional assay
Glt-AAF-MCA = molecular target: T1, Glt-AAF-MCA
Z-LLE-MCA = molecular target: T2, Z-LLE-MCA
Boc-FSR-MCA = molecular target: T3, Boc-FSR-MCA
Suc-LLVY-MCA = molecular target: T4, Suc-LLVY-MCA
Suc(OMe)-AAPV-MCA = molecular target: T5, Suc(OMe)-AAPV-MCA

Molecule | residual activity (%) [1] | substrate specificity: increase of fluorescent strength, relative (column has no head) (Glt-AAF-MCA) | substrate specificity: increase of fluorescent strength, relative (column has no head) (Z-LLE-MCA) | substrate specificity: increase of fluorescent strength, relative (column has no head) (Boc-FSR-MCA) | substrate specificity: increase of fluorescent strength, relative (column has no head) (Suc-LLVY-MCA) | substrate specificity: increase of fluorescent strength, relative (column has no head) (Suc(OMe)-AAPV-MCA)
leupeptin (peptide) | 89% |  |  |  |  | 
pepstatin A (peptide) | 91% |  |  |  |  | 
B1 |  | 1.6% | 0.1% | 0.3% | 100.0% | 0.2%
